Measured values: US20230399393A1, “METHODS TO EXTEND HEALTH-SPAN AND TREAT AGE-RELATED DISEASES” (National University of Singapore, priority 2020, published 2023)

What was measured:
[1] = test system: Primary human cardiac fibroblasts; assay: IL-11-stimulated fibroblasts with Rapamycin, Wortmannin or U0126, western blot; assay type: cell-based; conditions: IL11 10 ng/ml 24 hours; Rapamycin 10 nM, Wortmannin 1 μM, U0126 10 μM
Experimental: FIG. 18. Western blot image showing the levels of p-LKB1, LKB1, p-AMPK, AMPK in primary human cardiac fibroblasts that are unstimulated (BL+DMSO) or stimulated with IL11 for 24 hours in the presence of either DMSO, Rapamycin, Wortmannin, or U0126. IL11(10 ng/ml), Rapamycin (10 nM), Wortmannin (1 μM), U0126 (10 μM).
Primary human cardiac fibroblasts were stimulated with IL-11 for 24 hours in the presence of either DMSO, Rapamycin (mTOR inhibitor), Wortmannin (phosphoinositide 3-kinases (PI3K) inhibitor), or U0126 (MEK1/2 inhibitor) and the levels of p-LKB1 and p-AMPK were measured by western blot (FIG. 18).

[2] = test system: Primary human hepatic stellate cells; assay: IL-11 stimulation in the presence of DMSO or U0126, western blot; assay type: cell-based; conditions: IL-11 24 hours; U0126 10 μM
Experimental: FIG. 21. Western blot image showing the levels of p-ERK, ERK, p-P90RSK, P90RSK, p-LKB1, LKB1, p-AMPK, AMPK, p-mTOR, mTOR, p-p70S6K, p70S6K, p-S6RP, S6RP, SMA, and GAPDH in primary human hepatic stellate cells that are unstimulated (BL+DMSO) or stimulated for 24 hours with IL11 in the presence DMSO or U0126 (10 μM).
(§1) Primary human hepatic stellate cells and human hepatocytes were stimulated for 24 hours with IL-11 in the presence DMSO or U0126. As discussed in Example 4.4, the inventors observed that IL-11 treatment stimulates p-mTOR, p-70S6K and p-S6RP. In line with the inventors' hypothesis, administration of U0126 to IL-11-stimulated cells prevents ERK-mediated inactivation of LKB1/AMPK that stops IL11-induced mTORC1/P70S6K activation (FIG. 21 and FIG. 22, respectively).

[3] = test system: human hepatocytes; assay: as above; assay type: cell-based; conditions: IL-11 24 hours; U0126 10 μM
Experimental: FIG. 22. Western blot image showing the levels of p-ERK, ERK, p-P90RSK, P90RSK, p-LKB1, LKB1, p-AMPK, AMPK, p-mTOR, mTOR, p-p70S6K, p70S6K, p-S6RP, S6RP in primary human hepatocytes that are unstimulated (BL+DMSO) or stimulated for 24 hours with IL11 in the presence DMSO or U0126 (10 μM).
as §1

[4] = test system: rheumatoid synovial cells; conditions: upon treatment; cited from earlier work
[5] = test system: human hepatocytes; assay: Increasing concentrations of IL-11 or IL-6, western blot p-LKB1/p-AMPK; assay type: cell-based; conditions: 24 hours; 1.25-20 ng/ml, even at the highest concentration
Experimental: (§2) FIG. 23. Western blot image showing the levels of p-LKB1, LKB1, p-AMPK, AMPK in primary human hepatocytes or primary human hepatic stellate cells that are unstimulated (BL) or stimulated for 24 hours with increasing concentrations (1.25, 2.5, 5, 10 or 20 ng/ml) of IL-11 or IL-6.
(§3) Primary human hepatic stellate cells (HSCs) and human hepatocytes were stimulated for 24 hours with increasing concentrations (1.25-20 ng/ml) of IL-11 or IL-6. […] The effect of IL-11 on these markers is observable at concentrations as low as 1.25 ng/ml in both HSCs and hepatocytes.

[6] = test system: Primary human hepatic stellate cells (HSCs); assay: as above; assay type: cell-based; conditions: 24 hours; 1.25-20 ng/ml, even at the highest concentration
Experimental: as §2, §3

[7] = test system: AML12; assay: Senescence reversal experiment, qPCR at day 10; assay type: cell-based, mouse; conditions: 2 μg/ml for 72 hours after 7 days senescence induction; vs IgG
Experimental: FIG. 25. (25A) Schematic of senescence reversal experiment for data shown in B-D. Senescent AML12 were generated for 7 days as described above. IgG/X203/X209 (2 μg/ml) was added into the cultures at the end of senescence induction period for 72 hours; cells were harvested at day 10 for RNA extraction and subsequent qPCR experiments. Relative mRNA expression of (25B) Cdkn1a (p21), (25C) Il1β, and (25D) Il11.
Briefly, senescent AML12 were generated for 7 days as described above, but IgG/X203/X209 (2 μg/ml) was added into the cultures at the end of senescence induction period for 72 hours.
(§4) Senescent AML12 were generated by treating the cells with a sub-lethal concentration of H2O2 (0.75 mM) for 1 hour, followed by 23 hours recovery per day, for 7 days as described (Tripathi, Yen, and Singh 2020, STAR Protocols 1 (2): 100064). For prevention study, AML12 cells were treated with 2 ug/ml of either IgG or X209 during the recovery period of the senescence induction stage (from day 1 to day 7); cells were harvested for total RNA collection at day 10. For reversal study, senescence was first induced for seven days followed by 2 ug/ml of IgG, X203, or X209 treatment for 3 days; cells were harvested for total RNA collection at day 10.
(§5) Total RNA was extracted from AML12 or snap-frozen tissues using Trizol (Invitrogen) and RNeasy Mini Kit (Qiagen). […] using iScript cDNA Synthesis Kit (Biorad). Gene expression analysis was performed on duplicate samples with either TaqMan (Applied Biosystems) for Il11 (Mm00434162) or fast SYBR green (Qiagen) technology using StepOnePlus™ (Applied Biosystem) for Ccl2, Ccl5, Gapdh, Il1β, Il6, Il8, p16, p21, Tnfα, over 40 cycles. Expression data were normalized to GAPDH mRNA expression and fold change was calculated using 2^−ΔΔct method.

[8] = test system: Primary human hepatocytes; assay: Hepatocytes stimulated with IL-11, BSA or palmitate with X203, X209 or IgG, western blot; assay type: cell-based; conditions: 24 hours; antibody 2 μg/ml; IL11 10 ng/ml or palmitate 0.5 mM
Experimental: FIG. 20. Western blot image showing the levels of p-ERK, ERK, p-P90RSK, P90RSK, p-LKB1, LKB1, p-AMPK, AMPK, p-Acetyl-CoA Carboxylase (p-ACC), Acetyl-CoA Carboxylase (ACC), p-mTOR, mTOR, p-p70S6K, p70S6K, p-S6RP, S6RP in primary human hepatocytes that are unstimulated (BL) or stimulated for 24 hours with either IL11, 0.5% BSA, or palmitate (saturated fatty acid) in the presence of X203, X209, or IgG (11E10) isotype control. IL11 (10 ng/ml), IgG/X203/X209 (2 μg/ml), palmitate (0.5 mM) conjugated in free BSA (0.5% BSA solution) in the ratio of 6:1.
Primary human hepatocytes (stimulated with IL-11, BSA or palmitate, or unstimulated) were treated with X203 (anti-IL-11 antagonist antibody) and X209 (anti-IL-11Rα antagonist antibody). […] Treatment with X203 or X209 essentially reverses the effect of palmitate stimulation on these markers to the levels observed in the unstimulated control.

[9] = test system: Primary human cardiac fibroblasts; assay: IL11 or TGFβ1 stimulated fibroblasts with X203, X209 or IgG, western blot; assay type: cell-based; conditions: IL11/TGFβ1 10 ng/ml, 24 hours; antibody 2 μg/ml
Experimental: FIG. 19. Western blot image showing the levels of p-ERK, ERK, p-P90RSK, P90RSK, p-LKB1, LKB1, p-AMPK, AMPK, p-mTOR, mTOR, p-p70S6K, p70S6K, p-S6RP, S6RP, SMA, and GAPDH in primary human cardiac fibroblasts that are unstimulated (BL) or stimulated for 24 hours with either IL11 or TGFβ1 in the presence of X203, X209, or IgG (11E10) isotype control. IL11/TGFβ1 (10 ng/ml), IgG/X203/X209 (2 μg/ml).
Primary human cardiac fibroblasts were stimulated with IL11 or TGFβ1, or unstimulated (BL).

[10] = test system: AML12; assay: Senescence prevention experiment, qPCR at day 10; assay type: cell-based, mouse; conditions: 2 μg/ml during recovery period, vs IgG
Experimental: FIG. 24. (24A) Schematic of senescence prevention experiment for data shown in B-F. Senescent AML12 were generated by treating the cells with a sub-lethal concentration of H2O2 (0.75 mM) for 1 hour, followed by 23 hours recovery per day, for 7 days as described by Tripathi et. al. (2020). IgG/X209 (2 μg/ml) was added into the cultures during the 23 hours recovery period for 10 days; cells were harvested at day 10 for RNA extraction and subsequent qPCR experiments. Relative mRNA expression of (24B) Cdkn2a (p16), (24C) Cdkn1a (p21), (24D) Il1β, (24E) Il8, and (24F) Il11.
Briefly, senescent AML12 were generated by treating the cells with a sub-lethal concentration of H2O2 as described by Tripathi et. al. (2020) STAR Protocols 1 (2): 100064. IgG/X209 (2 μg/ml) was added into the cultures during the 23 hours recovery period for 10 days. Relative mRNA expression of Cdkn2a (p16), Cdkn1a (p21), Il1β, Il8, and Il11, as measured by qPCR is shown in FIGS. 24B, 24C, 24D, 24E and 24F, respectively. Markers of senescence (P16 and p21) and markers of inflammation (IL-1b, IL-11 and […]) are diminished in cells that have undergone IL-11-mediated signalling antagonism by X209.
as §4, §5

[11] = test system: AML12 cells; assay: In vitro model of senescence induction, qRT-PCR at day 7; assay type: cell-based, mouse; conditions: 2 ug/ml from day 2, H2O2 0.75 mM, vs isotype-matched control IgG
Experimental: Senescent hepatic mouse cells were generated from cells of the mouse hepatocyte cell line AML12 as described in Tripathi et al., Star Protocols (2020) 1:100064 (hereby incorporated by reference in its entirety).
Briefly, AML12 cells were grown to 50% confluency and senescence was induced by treating the cells with a sub-lethal concentration of H2O2 (0.75 mM) for 1 h, followed by 23 h recovery per day, for a total of 7 days (as described in Tripathi et al., Star Protocols (2020) 1:100064). From day 2 onwards, 2 ug/ml of X209/X203 or isotype-matched control IgG was added to the cultures during the 23h recovery period.
Total RNA was isolated at day 7, and levels of p21 (Cdkn1a), […], Il11 and Tgfb gene expression were evaluated by qRT-PCR. Briefly, total RNA was extracted from cell lysates using Trizol (Invitrogen) followed by RNeasy column (Qiagen) purification. cDNAs were synthesized with iScript™ cDNA synthesis kit (Bio-Rad) according to manufacturer's instructions. Gene expression analysis was performed with either TaqMan (Applied Biosystems) or fast SYBR green (Qiagen) using the StepOnePlus Real-Time PCT System (Applied Biosystems) over 40 cycles. Expression data for p21 (Cdkn1a), Il1b, Il11 and Tgfb were normalised to Gapdh expression, and fold change was calculated using the 2^−ΔΔCt method.

## N#CC(=C(/N)Sc1ccccc1N)/C(C#N)=C(\N)Sc1ccccc1N [U0126]
[1]
  level of p-AMPK: increases
  level of p-LKB1: decreases
[2]
  ERK-mediated inactivation of LKB1/AMPK: prevents
  IL11-induced mTORC1/P70S6K activation: stops
[3]
  ERK-mediated inactivation of LKB1/AMPK: prevents
  IL11-induced mTORC1/P70S6K activation: stops

## COc1ccc2c(c1)c(CC(=O)O)c(C)n2C(=O)c1ccc(Cl)cc1 [indomethacin, reference compound]
[4]
  expression of IL-11: reduction

## IL-6: cytokine used as comparator stimulus to IL-11
[5]
  inactivation of LKB1 or activation of AMPK: does not induce
[6]
  inactivation of LKB1 or activation of AMPK: does not induce

## interferon-gamma: interferon-gamma (IFNγ)
[4]
  expression of IL-11: reduction

B1: X209: mouse anti-mouse IL-11Rα IgG antagonist antibody; VH SEQ ID NO:24, VL SEQ ID NO:25 (antibody, V domains shown)
VH: QVQLQQPGAELVRPGSSVKLSCKASGYTFTNYWMHWLKQRPVQGLEWIGNIGPSDSKTHYNQKFKDKATLTVDKSSSTAYMQLNSLTSEDSAVYYCARGDYVLFTYWGQGTLVTVSA
VL: DIVLTQSPATLSLSPGERATLSCRASQSISNNLHWYQQKSHEAPRLLIKYASQSISGIPARFSGSGSGTDFTLSFSSLETEDFAVYFCQQSYSWPLTFGQGTKLEIK
[7]
  inflammation marker IL-1 b: significantly reduce
  inflammation marker IL-11: significantly reduce
  senescence marker p21: significantly reduce
[8]
  levels of p-AMPK and p-ACC: increase
  levels of phosphorylated markers p-ERK, p-p90RSK, p-LKB1, p-mTOR, p-p70S6K and p-S6RP: reduces
[9]
  level of phosphorylation of markers ERK, p90RSK, LKB1, mTOR, p70S6K and S6RP: significantly reduce
[10]
  marker of inflammation IL-1b mRNA: diminished
  marker of inflammation IL-6: diminished
  marker of inflammation IL-11 mRNA: diminished
  marker of senescence P16 (Cdkn2a) mRNA: diminished
  marker of senescence p21 (Cdkn1a) mRNA: diminished
[11]
  gene expression of Il11: significantly reduce
  gene expression of Il11b: significantly reduce
  gene expression of Tgfb: significantly reduce
  gene expression of p21 (Cdkn1a): significantly reduce
